In US5919901:
Ends that are not written are not given here.

Target: T1, Rat Y4/PP1 (clone) (rat), Q63447
T1 chain: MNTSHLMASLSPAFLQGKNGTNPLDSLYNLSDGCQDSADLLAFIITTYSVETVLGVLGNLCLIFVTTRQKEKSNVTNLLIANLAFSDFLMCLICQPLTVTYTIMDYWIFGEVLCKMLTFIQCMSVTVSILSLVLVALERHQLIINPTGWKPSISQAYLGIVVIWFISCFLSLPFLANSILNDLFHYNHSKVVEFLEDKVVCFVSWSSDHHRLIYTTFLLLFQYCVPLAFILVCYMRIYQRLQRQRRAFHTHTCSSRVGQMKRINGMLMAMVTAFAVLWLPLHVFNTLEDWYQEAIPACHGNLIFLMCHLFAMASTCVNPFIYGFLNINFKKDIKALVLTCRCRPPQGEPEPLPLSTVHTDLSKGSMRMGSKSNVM
Assay: competition with rat [125I]PP on the rat Y4/PP1 clone
Settings: remark: other sources report otherwise

IC50: > 1000 nM
B1: p(13-36)NPY, P01304 (peptide)
peptide: PAEDLARYYSALRHYINLITRQRY
modifications: ends and bridges not checked
